# Measured values as given in US7579150B1, “Mobile RNA acts as a signal to regulate plant growth and development” (Iowa State University Research Foundation, Inc., priority 2004, dated 2009).
# B1: pBHD-9: POTH1 construct: first amino-terminal 114 aa, no KNOX domain sequence; transcriptional activator alone (protein)
# chain: MKLLSSIEQACDICRLKKLKCSKEKPKCAKCLKNNWECRYSPKTKRSPLTRAHLTEVESRLERLEQLFLLIFPREDLDMILKMDSLQDIKALLTGLFVQDNVNKDAVTDRLASVETDMPLTLRQHRISATSSSEESSNKGQRQLTVSMDDEMYGFHSTRDDYADKALMSPENLMMQTEYNNFHNYTNSSILTSNPMMFGSDDIQLSSEQTNSFSTMTLQNNDNIYQIRSGNCGGGSGSGGSSKDHNDNNNNNEDYDEDGSN
# Test system: StBEL-05
# Sequence (as listed by the source): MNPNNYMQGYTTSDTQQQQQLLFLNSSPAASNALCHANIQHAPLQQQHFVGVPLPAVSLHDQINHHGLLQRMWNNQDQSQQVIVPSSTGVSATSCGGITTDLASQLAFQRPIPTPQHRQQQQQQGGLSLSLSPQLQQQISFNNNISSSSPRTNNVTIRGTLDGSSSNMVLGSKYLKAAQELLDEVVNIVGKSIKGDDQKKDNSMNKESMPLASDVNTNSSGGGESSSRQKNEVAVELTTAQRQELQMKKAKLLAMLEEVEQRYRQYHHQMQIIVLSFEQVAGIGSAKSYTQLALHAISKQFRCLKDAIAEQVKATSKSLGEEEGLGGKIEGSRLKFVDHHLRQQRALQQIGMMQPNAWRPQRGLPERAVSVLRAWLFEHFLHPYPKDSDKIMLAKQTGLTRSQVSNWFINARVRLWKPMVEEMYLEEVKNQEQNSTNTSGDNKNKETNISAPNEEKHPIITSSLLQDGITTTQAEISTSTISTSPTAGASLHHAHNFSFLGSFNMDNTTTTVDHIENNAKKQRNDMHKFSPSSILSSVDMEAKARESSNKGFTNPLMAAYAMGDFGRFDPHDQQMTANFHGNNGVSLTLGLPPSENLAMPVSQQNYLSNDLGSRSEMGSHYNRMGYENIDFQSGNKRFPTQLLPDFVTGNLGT
# Assay: Yeast two-hybrid interaction of POTH1 deletion constructs with StBEL-05
# Format: cell-based, potato
# Settings: yeast strain AH109
# Source text: The Matchmaker two-hybrid system (Clontech, CA) was used for the yeast two-hybrid screen. Yeast transformation and plasmid rescue into DH5-a E. coli cells were according to the manufacturer's instructions. Full-length POTH1 was cloned into the pBridge (Clontech, CA) vector and used as bait to screen the potato (S. tuberosum ‘Desireé’) stolon cDNA library in pAD-GAL4-2.1 (Stratagene, Calif.). Positive interactions were confirmed by cotransforming yeast strain AH109 with each purified pAD plasmid and pBridge: POTH1 and plating on -leucine/-tryptophan (transformation control) and -leucine/-tryptophan/-histidine/-adenine (selection) nutrient medium. Induction of the AH109 reporter gene, lacZ, was measured with a yeast β-galactosidase assay kit (Pierce Chemicals). β-galactosidase activity (FIG. 9B) was determined from a known density of yeast cells and calculated as 1000×OD420/time of color reaction (minutes)×volume of yeast culture (ml)×OD600.
# The StBEL-05 deletion constructs were amplified by PCR, then cloned into the vector, pGAD, in-frame with the GAL4 activation domain. POTH1 deletion constructs were amplified by PCR, and cloned into pBridge (Clontech) in-frame with the GAL4 binding domain. Sequencing of selected cDNAs and constructs was performed at the Iowa State University DNA Facility. […]
molecule,measurement,value
B1,interaction with StBEL-05,Interaction with StBEL-05 was observed
